Test results: the Immune Epitope Database (IEDB)
One block for each sequence: values may come before it.

Columns and labels:
HLA-B*45:01 = assay: IEDB peptide-MHC binding, purified MHC/competitive/radioactivity; filed as Kd, often an IC50 or EC50 that approximates it; ≥ and ≤ were set here for values at or beyond the usual limits of such assays
HLA-B*44:03 = assay: as above
HLA-B*44:02 = assay: as above
HLA-B*18:01 = assay: as above
HLA-B*40:02 = assay: as above
HLA-B*40:01 [1] = assay: as above
HLA-B*51:01 [2] = assay: as above; details: source organism: Dengue virus 3 Martinique/1243/1999
HLA-B*35:01 = assay: as above
HLA-B*53:01 = assay: as above; details: source organism: Dengue virus 3 Martinique/1243/1999
HLA-A*68:02 = assay: as above
HLA-A*02:02 = assay: as above; details: source organism: Trypanosoma cruzi
HLA-A*02:06 = assay: as above
HLA-A*02:03 = assay: as above; details: source organism: Trypanosoma cruzi
HLA-B*15:01 = assay: IEDB peptide-MHC binding, purified MHC/competitive/fluorescence; filed as Kd, often an IC50 or EC50 that approximates it; ≥ and ≤ were set here for values at or beyond the usual limits of such assays
HLA-B*07:02 [3] = assay: IEDB peptide-MHC binding, purified MHC/direct/fluorescence; filed as Kd, often an IC50 or EC50 that approximates it; ≥ and ≤ were set here for values at or beyond the usual limits of such assays; details: source organism: Homo sapiens
HLA-B*51:01 [4] = assay: IEDB peptide-MHC binding, purified MHC/competitive/fluorescence; filed as Kd, often an IC50 or EC50 that approximates it; ≥ and ≤ were set here for values at or beyond the usual limits of such assays
HLA-A*26:01 = assay: as above
HLA-A*24:03 = assay: IEDB peptide-MHC binding, purified MHC/direct/fluorescence; filed as Kd, often an IC50 or EC50 that approximates it; ≥ and ≤ were set here for values at or beyond the usual limits of such assays; details: source organism: Mycobacterium tuberculosis variant bovis
HLA-B*40:01 [5] = assay: as above; details: source organism: Mycobacterium avium subsp. paratuberculosis
HLA-B*07:02 [6] = assay: IEDB peptide-MHC binding, purified MHC/competitive/radioactivity; filed as Kd, often an IC50 or EC50 that approximates it; ≥ and ≤ were set here for values at or beyond the usual limits of such assays
[7] = source organism: SARS coronavirus Tor2
[8] = source organism: Dengue virus 3 Martinique/1243/1999
[9] = source organism: Mammarenavirus machupoense
[10] = source organism: Trypanosoma cruzi
[11] = source organism: Mammarenavirus lassaense
[12] = source organism: Escherichia coli str. K-12 substr. MG1655
[13] = source organism: Mammarenavirus choriomeningitidis
[14] = source organism: Pan troglodytes
[15] = source organism: Mammarenavirus juninense
[16] = source organism: Dengue virus 4 Philippines/H241/1956

Sequence: SEVAVLYQDV
Kd (HLA-B*45:01; [7]): 200 nM
Kd (HLA-B*44:03; [7]): 104 nM
Kd (HLA-B*44:02; [7]): 1120 nM
Kd (HLA-B*18:01; [7]): 3110 nM
Kd (HLA-B*40:02; [7]): 134 nM
Kd (HLA-B*40:01 [1]; [7]): 962 nM

Sequence: MPSMKRFRKE
Kd (HLA-B*51:01 [2]): ≥ 69600 nM
Kd (HLA-B*35:01; [8]): 14000 nM
Kd (HLA-B*53:01): 10900 nM

Sequence: GDEALTGFL
Kd (HLA-B*45:01; [9]): ≥ 22600 nM
Kd (HLA-B*44:03; [9]): ≥ 78100 nM
Kd (HLA-B*44:02; [9]): 13800 nM
Kd (HLA-B*18:01; [9]): 5820 nM
Kd (HLA-B*40:02; [9]): 2990 nM
Kd (HLA-B*40:01 [1]; [9]): 908 nM

Kd (HLA-A*68:02; source organism: Homo sapiens): 3720 nM
Sequence: DLTDYLMKI

Sequence: RVSRPTTVV
Kd (HLA-A*02:02): 6200 nM
Kd (HLA-A*68:02; [10]): 200 nM
Kd (HLA-A*02:06; [10]): 1340 nM
Kd (HLA-A*02:03): 105 nM

Sequence: QEAYYRARAG
Kd (HLA-B*45:01; [7]): 607 nM
Kd (HLA-B*44:03; [7]): 411 nM
Kd (HLA-B*44:02; [7]): 954 nM
Kd (HLA-B*18:01; [7]): ≥ 36100 nM
Kd (HLA-B*40:02; [7]): 963 nM
Kd (HLA-B*40:01 [1]; [7]): 12700 nM

Sequence: FDAAVMGGF
Kd (HLA-B*45:01; [11]): ≥ 77700 nM
Kd (HLA-B*44:03; [11]): 18400 nM
Kd (HLA-B*44:02; [11]): ≥ 27400 nM
Kd (HLA-B*18:01; [11]): ≥ 39800 nM
Kd (HLA-B*40:02; [11]): 5230 nM
Kd (HLA-B*40:01 [1]; [11]): ≥ 32300 nM

Kd (HLA-B*15:01; [12]): 499 nM
Sequence: ANNKVYEAY

Sequence: QECNNMHLST
Kd (HLA-B*45:01; [7]): 636 nM
Kd (HLA-B*44:03; [7]): 7120 nM
Kd (HLA-B*44:02; [7]): 5610 nM
Kd (HLA-B*18:01; [7]): ≥ 70500 nM
Kd (HLA-B*40:02; [7]): 595 nM
Kd (HLA-B*40:01 [1]; [7]): 15200 nM

Sequence: AELLPDTTYL
Kd (HLA-B*45:01; [13]): 17300 nM
Kd (HLA-B*44:03; [13]): 1210 nM
Kd (HLA-B*44:02; [13]): 561 nM
Kd (HLA-B*18:01; [13]): ≥ 70400 nM
Kd (HLA-B*40:02; [13]): 167 nM
Kd (HLA-B*40:01 [1]; [13]): 9780 nM

Kd (HLA-B*07:02 [3]): 8.8 nM
Kd (HLA-B*51:01 [4]; [14]): ≥ 20000 nM
Kd (HLA-A*26:01; [14]): ≥ 20000 nM
Kd (HLA-B*15:01; [14]): ≥ 20000 nM
Sequence: KVRDRNFQL

Sequence: SYYPDQKSL
Kd (HLA-A*24:03): 8.4 nM

Sequence: GENAVIPKG
Kd (HLA-B*45:01; [7]): 828 nM
Kd (HLA-B*44:03; [7]): 2230 nM
Kd (HLA-B*44:02; [7]): 2030 nM
Kd (HLA-B*18:01; [7]): ≥ 77500 nM
Kd (HLA-B*40:02; [7]): 907 nM
Kd (HLA-B*40:01 [1]; [7]): ≥ 76200 nM

Sequence: FANYKFTLV
Kd (HLA-A*02:02): 73.8 nM
Kd (HLA-A*68:02; [10]): 17.9 nM
Kd (HLA-A*02:06; [10]): 0.469 nM
Kd (HLA-A*02:03): 0.609 nM

Sequence: KEHKGVGFL
Kd (HLA-B*40:01 [5]): 30.3 nM

Sequence: AETGSQGVY
Kd (HLA-B*45:01; [15]): 211 nM
Kd (HLA-B*44:03; [15]): 228 nM
Kd (HLA-B*44:02; [15]): 271 nM
Kd (HLA-B*18:01; [15]): 6630 nM
Kd (HLA-B*40:02; [15]): 638 nM
Kd (HLA-B*40:01 [1]; [15]): 15900 nM

Kd (HLA-A*26:01; [12]): ≥ 20000 nM
Kd (HLA-B*15:01; [12]): 708 nM
Sequence: ALKANNKVY

Sequence: LPWTSGATT
Kd (HLA-B*35:01; [8]): 1300 nM
Kd (HLA-B*07:02 [6]; [8]): 25.8 nM

Sequence: REAACCHLA
Kd (HLA-B*45:01; [7]): 11.4 nM
Kd (HLA-B*44:03; [7]): 1910 nM
Kd (HLA-B*44:02; [7]): 3030 nM
Kd (HLA-B*18:01; [7]): ≥ 31400 nM
Kd (HLA-B*40:02; [7]): 97.5 nM
Kd (HLA-B*40:01 [1]; [7]): 236 nM

Sequence: CEKALKYLPI
Kd (HLA-B*45:01; [7]): 104 nM
Kd (HLA-B*44:03; [7]): 1150 nM
Kd (HLA-B*44:02; [7]): 127 nM
Kd (HLA-B*18:01; [7]): ≥ 29100 nM
Kd (HLA-B*40:02; [7]): 30.3 nM
Kd (HLA-B*40:01 [1]; [7]): 6970 nM

Sequence: TPQAPTSEIQ
Kd (HLA-B*07:02 [6]; source organism: Dengue virus 1 Brazil/97-11/1997): 808 nM

Sequence: IPKAYAGPF
Kd (HLA-B*35:01; [16]): 290 nM
Kd (HLA-B*07:02 [6]; [16]): 7.32 nM

Sequence: AEIVDTVSA
Kd (HLA-B*45:01; [7]): 8.59 nM
Kd (HLA-B*44:03; [7]): 1640 nM
Kd (HLA-B*44:02; [7]): 1930 nM
Kd (HLA-B*18:01; [7]): 8190 nM
Kd (HLA-B*40:02; [7]): 73.5 nM
Kd (HLA-B*40:01 [1]; [7]): 396 nM

Kd (HLA-A*68:02; source organism: Homo sapiens): 13400 nM
Kd (HLA-A*02:06; source organism: Homo sapiens): ≥ 32100 nM
Sequence: QLKDKADFCI

Sequence: MTYLPAWQV
Kd (HLA-B*51:01 [4]; source organism: Yersinia pestis Nepal516): ≥ 20000 nM

Sequence: AEVEWKFYDA
Kd (HLA-B*45:01; [7]): 5.54 nM
Kd (HLA-B*44:03; [7]): 90.5 nM
Kd (HLA-B*44:02; [7]): 79 nM
Kd (HLA-B*18:01; [7]): 1540 nM
Kd (HLA-B*40:02; [7]): 4690 nM
Kd (HLA-B*40:01 [1]; [7]): 8440 nM

Sequence: AENVIVGLV
Kd (HLA-B*45:01; [9]): 3.39 nM
Kd (HLA-B*44:03; [9]): 340 nM
Kd (HLA-B*44:02; [9]): 142 nM
Kd (HLA-B*18:01; [9]): ≥ 77500 nM
Kd (HLA-B*40:02; [9]): 30 nM
Kd (HLA-B*40:01 [1]; [9]): 2930 nM

Sequence: EVSETQHGTI
Kd (HLA-A*68:02; [8]): 193 nM
